Assays:
[1] = target: Mutant VWF-A2 FRET protein with a change at Pro1645 (P1645A)
[2] = target: T1, S-VWF (Venus - VWF 1558-1670 - Cerulean - His tag FRET protein)
T1 chain: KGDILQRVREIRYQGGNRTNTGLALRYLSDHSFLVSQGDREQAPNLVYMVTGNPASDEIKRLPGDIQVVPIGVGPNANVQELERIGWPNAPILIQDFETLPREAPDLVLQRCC

[3] = target: T2, M-VWF (Venus - VWF 1530-1670 - Cerulean - His tag FRET protein)
T2 chain: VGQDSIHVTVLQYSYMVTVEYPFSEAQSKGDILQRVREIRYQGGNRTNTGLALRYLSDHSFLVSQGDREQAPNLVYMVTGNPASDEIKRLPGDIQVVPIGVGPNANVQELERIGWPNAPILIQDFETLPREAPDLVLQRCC

[4] = target: Multimeric human plasma VWF
[5] = target: T3, XS-VWF (Venus - VWF 1594-1670 - Cerulean - His tag FRET protein)
T3 chain: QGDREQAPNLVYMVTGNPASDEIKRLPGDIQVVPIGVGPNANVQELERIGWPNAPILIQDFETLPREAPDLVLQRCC

[6] = target: Mutant VWF-A2 FRET protein with Cysteine to Glycine at positions 1669 and 1670 (CC1669-70GG)
[7] = target: T4, XS-VWF(AA) (XS-VWF with Y1605-M1606 replaced by A1605-A1606)
T4 chain: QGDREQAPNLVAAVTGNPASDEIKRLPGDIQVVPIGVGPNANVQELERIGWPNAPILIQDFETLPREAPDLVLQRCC

[8] = target: T5, L-VWF (Venus - VWF 1496-1670 - Cerulean - His tag FRET protein)
T5 chain: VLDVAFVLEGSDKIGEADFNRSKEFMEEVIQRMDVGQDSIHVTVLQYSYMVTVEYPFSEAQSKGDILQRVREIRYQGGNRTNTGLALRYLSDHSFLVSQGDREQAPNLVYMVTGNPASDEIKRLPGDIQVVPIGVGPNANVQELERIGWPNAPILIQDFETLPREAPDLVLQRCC

B1: Recombinant human ADAMTS13 (protein)
chain: AAGGILHLELLVAVGPDVFQAHQEDTERYVLTNLNIGAELLRDPSLGAQFRVHLVKMVILTEPEGAPNITANLTSSLLSVCGWSQTINPEDDTDPGHADLVLYITRFDLELPDGNRQVRGVTQLGGACSPTWSCLITEDTGFDLGVTIAHEIGHSFGLEHDGAPGSGCGPSGHVMASDGAAPRAGLAWSPCSRRQLLSLLSAGRARCVWDPPRPQPGSAGHPPDAQPGLYYSANEQCRVAFGPKAVACTFAREHLDMCQALSCHTDPLDQSSCSRLLVPLLDGTECGVEKWCSKGRCRSLVELTPIAAVHGRWSSWGPRSPCSRSCGGGVVTRRRQCNNPRPAFGGRACVGADLQAEMCNTQACEKTQLEFMSQQCARTDGQPLRSSPGGASFYHWGAAVPHSQGDALCRHMCRAIGESFIMKRGDSFLDGTRCMPSGPREDGTLSLCVSGSCRTFGCDGRMDSQQVWDRCQVCGGDNSTCSPRKGSFTAGRAREYVTFLTVTPNLTSVYIANHRPLFTHLAVRIGGRYVVAGKMSISPNTTYPSLLEDGRVEYRVALTEDRLPRLEEIRIWGPLQEDADIQVYRRYGEEYGNLTRPDITFTYFQPKPRQAWVWAAVRGPCSVSCGAGLRWVNYSCLDQARKELVETVQCQGSQQPPAWPEACVLEPCPPYWAVGDFGPCSASCGGGLRERPVRCVEAQGSLLKTLPPARCRAGAQQPAVALETCNPQPCPARWEVSEPSSCTSAGGAGLALENETCVPGADGLEAPVTEGPGSVDEKLPAPEPCVGMSCPPGWGHLDATSAGEKAPSPWGSIRTGAQAAHVWTPAAGSCSVSCGRGLMELRFLCMDSALRVPVQEELCGLASKPGSRREVCQAVPCPARWQYKLAACSVSCGRGVVRRILYCARAHGEDDGEEILLDTQCQGLPRPEPQEACSLEPCPPRWKVMSLGPCSASCGLGTARRSVACVQLDQGQDVEVDEAACAALVRPEASVPCLIADCTYRWHVGTWMECSVSCGDGIQRRRDTCLGPQAQAPVPADFCQHLPKPVTVRGCWAGPCVGQGTPSLVPHEEAAAPGRTTATPAGASLEWSQARGLLFSPAPQPRRLLPGPQENSVQSSACGRQHLEPTGTIDMRGPGQADCAVAIGRPLGEVVTLRVLESSLNCSAGDMLLLWGRLTWRKMCRKLLDMTFSSKTNTLVVRQRCGRPGGGVLLRYGSQLAPETFYRECDMQLFGPWGEIVSPSLSPATSNAGGCRLFINVAPHARIAIHALATNMGAGTEGANASYILIRDTHSLRTTAFHGQQVLYWESESSQAEMEFSEGFLKAQASLRGQYWTLQSWVPEMQDPQSWKGKEGT
- cleavage in 1M urea, western blot [1]: changes in the Pro1645 site enhances VWF cleavage even in the presence of low concentrations of urea that are insufficient to cleave the wild-type protein
- FRET ratio after 1 h with ADAMTS13, no denaturant [2]: from 1.24 to 1.84 for S-VWF
- extent of cleavage (FRET ratio and western blot), varying urea [2]: Complete cleavage of XS-VWF and S-VWF was observed at urea concentrations <2.8M
- FRET ratio after 1 h with ADAMTS13, no denaturant [3]: There was very little change in the FRET ratio of M-VWF
- extent of cleavage, no urea [3]: In the absence of urea, the extent of cleavage of both L- and M-VWF was 20%
- proteolysis at 1.6M urea [3]: Increasing urea concentration to 1.6M resulted in 30% proteolysis
- cleavage after pre-denaturation with 4M urea, western blot [4]: Proteolysis was however complete at urea>2.4M, provided a pre-denaturation step was included
- cleavage without pre-denaturation, western blot [4]: multimeric VWF was also not fully cleaved when the protein was incubated with varying urea concentrations and ADAMTS13
- FRET ratio after 1 h with ADAMTS13, no denaturant [5]: FRET ratio increased from 0.78 to 1.73 for XS-VWF
- cleavage, western blot with anti-his pAb [5]: XS-VWF but not XS-VWF(AA) was cleaved by recombinant ADAMTS13
- extent of cleavage (FRET ratio and western blot), varying urea [5]: Complete cleavage of XS-VWF and S-VWF was observed at urea concentrations <2.8M
- cleavage in 1M urea, western blot [6]: substitution of Cysteine by Glycine at positions 1669 and 1670 enhances VWF A2 domain proteolysis
- FRET ratio after 1 h with ADAMTS13, no denaturant [7]: There was very little change in the FRET ratio of ... XS-VWF(AA)
- cleavage, western blot with anti-his pAb [7]: XS-VWF but not XS-VWF(AA) was cleaved by recombinant ADAMTS13
- FRET ratio after 1 h with ADAMTS13, no denaturant [8]: There was very little change in the FRET ratio of ... L-VWF
- cleavage at 2M urea after pre-denaturation with 4M urea [8]: >90% cleavage of L-VWF was observed at 2M urea upon inclusion of the pre-denaturation step
- extent of cleavage, no urea [8]: In the absence of urea, the extent of cleavage of both L- and M-VWF was 20%
- proteolysis at 1.6M urea [8]: Increasing urea concentration to 1.6M resulted in 30% proteolysis

B2: ADAMTS13 in human plasma (protein)
chain: AAGGILHLELLVAVGPDVFQAHQEDTERYVLTNLNIGAELLRDPSLGAQFRVHLVKMVILTEPEGAPNITANLTSSLLSVCGWSQTINPEDDTDPGHADLVLYITRFDLELPDGNRQVRGVTQLGGACSPTWSCLITEDTGFDLGVTIAHEIGHSFGLEHDGAPGSGCGPSGHVMASDGAAPRAGLAWSPCSRRQLLSLLSAGRARCVWDPPRPQPGSAGHPPDAQPGLYYSANEQCRVAFGPKAVACTFAREHLDMCQALSCHTDPLDQSSCSRLLVPLLDGTECGVEKWCSKGRCRSLVELTPIAAVHGRWSSWGPRSPCSRSCGGGVVTRRRQCNNPRPAFGGRACVGADLQAEMCNTQACEKTQLEFMSQQCARTDGQPLRSSPGGASFYHWGAAVPHSQGDALCRHMCRAIGESFIMKRGDSFLDGTRCMPSGPREDGTLSLCVSGSCRTFGCDGRMDSQQVWDRCQVCGGDNSTCSPRKGSFTAGRAREYVTFLTVTPNLTSVYIANHRPLFTHLAVRIGGRYVVAGKMSISPNTTYPSLLEDGRVEYRVALTEDRLPRLEEIRIWGPLQEDADIQVYRRYGEEYGNLTRPDITFTYFQPKPRQAWVWAAVRGPCSVSCGAGLRWVNYSCLDQARKELVETVQCQGSQQPPAWPEACVLEPCPPYWAVGDFGPCSASCGGGLRERPVRCVEAQGSLLKTLPPARCRAGAQQPAVALETCNPQPCPARWEVSEPSSCTSAGGAGLALENETCVPGADGLEAPVTEGPGSVDEKLPAPEPCVGMSCPPGWGHLDATSAGEKAPSPWGSIRTGAQAAHVWTPAAGSCSVSCGRGLMELRFLCMDSALRVPVQEELCGLASKPGSRREVCQAVPCPARWQYKLAACSVSCGRGVVRRILYCARAHGEDDGEEILLDTQCQGLPRPEPQEACSLEPCPPRWKVMSLGPCSASCGLGTARRSVACVQLDQGQDVEVDEAACAALVRPEASVPCLIADCTYRWHVGTWMECSVSCGDGIQRRRDTCLGPQAQAPVPADFCQHLPKPVTVRGCWAGPCVGQGTPSLVPHEEAAAPGRTTATPAGASLEWSQARGLLFSPAPQPRRLLPGPQENSVQSSACGRQHLEPTGTIDMRGPGQADCAVAIGRPLGEVVTLRVLESSLNCSAGDMLLLWGRLTWRKMCRKLLDMTFSSKTNTLVVRQRCGRPGGGVLLRYGSQLAPETFYRECDMQLFGPWGEIVSPSLSPATSNAGGCRLFINVAPHARIAIHALATNMGAGTEGANASYILIRDTHSLRTTAFHGQQVLYWESESSQAEMEFSEGFLKAQASLRGQYWTLQSWVPEMQDPQSWKGKEGT
- cleavage by FRET, 20% human plasma, 2 hours, 2M urea [1]: higher cleavage of mutant VWF proteins compared to the wild-type molecule upon addition of low concentrations of urea
- KM [2]: 1.8 µM
- kcat [2]: 0.295 s⁻¹
- KM [5]: 4.6 µM and KM=4 µM
- kcat [5]: 0.747 s⁻¹
- cleavage by FRET, 20% human plasma, 2 hours, 2M urea [6]: higher cleavage of mutant VWF proteins compared to the wild-type molecule upon addition of low concentrations of urea
